Measured values reported in patent US20260250318A1, “COMPOSITIONS AND METHODS FOR CROSSING THE BLOOD BRAIN BARRIER” (VOYAGER THERAPEUTICS, INC., priority 2022, published 2026).

T1: ALPL transcript variant 2 that lacks the ER signal (Homo sapiens, UniProt P05186)
T1 construct: expressed in transfected cells; host or cells: HEK 293T
T1 sequence (P05186 1-469 isoform P05186-3): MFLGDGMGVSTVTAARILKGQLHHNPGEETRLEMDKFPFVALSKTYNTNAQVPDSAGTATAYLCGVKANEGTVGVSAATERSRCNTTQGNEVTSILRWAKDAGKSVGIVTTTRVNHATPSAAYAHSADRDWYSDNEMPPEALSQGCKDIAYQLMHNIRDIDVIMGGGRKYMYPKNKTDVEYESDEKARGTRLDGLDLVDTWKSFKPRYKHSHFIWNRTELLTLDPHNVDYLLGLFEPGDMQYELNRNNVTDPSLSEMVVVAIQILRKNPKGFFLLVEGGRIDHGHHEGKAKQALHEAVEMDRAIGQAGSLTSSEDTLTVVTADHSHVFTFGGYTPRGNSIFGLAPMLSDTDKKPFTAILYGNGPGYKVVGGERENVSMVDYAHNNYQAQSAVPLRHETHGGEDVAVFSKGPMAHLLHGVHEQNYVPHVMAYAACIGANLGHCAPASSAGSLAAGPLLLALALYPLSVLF


Tests used:
[1] = system: brain, spinal cord, and DRG of the NHPs; test: NGS fold enrichment of synthetic library (passage 3) in NHPs, first cross-species screen; assay type: in vivo, cynomolgus macaques (Macaca fascicularis); settings: for fold enrichment in the DRG of NHPs relative to AAV9 / fold enrichment in the brain of NHPs relative to AAV9 / fold enrichment in the spinal cord of NHPs relative to AAV9: passage 3, intravenous; for Fold enrichment over AAV9 in the brain of NHPs / Fold enrichment over AAV9 in the spinal cord of NHPs: synthetic library passage 3, intravenous, RNA NGS, relative to wild-type AAV9
Method in brief: (§1)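 Passage-3 synthetic capsid library given intravenously […] to NHPs (2-4 years) and BALB/c or C57Bl/6 mice (n=3, 6-8 weeks). After e.g. 28 days, tissue RNA was RT-PCR amplified and NGS-sequenced; values are fold enrichment of each variant relative to wild-type AAV9.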

brain [2] = test: NGS fold enrichment of synthetic library (passage 3) in C57Bl/6 mice, first cross-species screen; assay type: in vivo; settings: synthetic library passage 3, intravenous, RNA NGS, brain of C57Bl/6 mice, relative to wild-type AAV9
Method in brief: as §1

brain [3] = test: Second cross-species screen, passage 2 in C57Bl/6 mice after first passage in NHPs; assay type: in vivo; settings: P2 in C57Bl/6 after first passage in NHPs
Procedure: (§2) A second cross-species evolution screen was performed using an AAV capsid variant library with a modification in loop IV introduced as described above and passaging it once through NHPs (passage 1) and then subsequently injected it into two different strains of mice (passage 2), C57Bl/6 and BALB/c. The fold-enrichment for each variant in the brain of each mouse species was calculated by systematic NGS enrichment analysis following RNA recovery and RT-PCR amplification. The fold enrichment values in the second passage in mice were compared to those fold enrichment values from the second pass that was performed in NHPs as described above. […] Further, 10 of these 12 variants comprised the SPH motif and a positive residue in one of the next three subsequent residues (Table 10).

[4] = system: brains and tissues (liver, DRG, quadriceps, and heart); test: NGS fold enrichment of capsid variants in African green monkeys; assay type: in vivo, African green monkeys (Chlorocebus sabaeus); settings: 2E13 vg/kg IV, 14 days
Text: To investigate tropism in African green monkeys, AAV particles comprising the TTM-001 capsid variant, the TTM-002 capsid variant, an AAV9 capsid variant comprising SEQ ID NO: 966, or an AAV9 control under the control of a synapsin promoter, were intravenously injected into NHPs (n=2, 3-12 years of age) at a dose of 2E13 vg/kg. After 14-days in life, the brains and tissues (liver, DRG, quadriceps, and heart) of the NHPs were collected and RNA was extracted. Following RNA recovery and RT-PCR amplification, a systematic NGS enrichment analysis was performed to calculate the fold enrichment ratio relative to the AAV9 wild-type control.

[5] = target: T1, ALPL transcript variant 2 that lacks the ER signal; test: Transduction assay in HEK 293T cells expressing ALPL with deletion of the ER localization signal; assay type: cell-based; settings: luciferase, relative to pCMV6
Procedure: To determine if deletion of the endoplasmic reticulum (ER) localization signal of ALPL affected transduction of the TTM-001 and TTM-002 capsid variants, HEK 293T cells were transfected via calcium phosphate transfection with a plasmid expressing ALPL, ALP with a deletion of the ER localization signal (ALPL transcript variant 2 that lacks the ER signal (NM_001127501, which is incorporated by reference herein)), or a pCMV6 negative control. At 24 hours post-transfection, the HEK 293T cells expressing the ALPL receptor were transduced with an AAV particle comprising the TTM-001 capsid variant, the TTM-002 capsid variant, or an AAV9 capsid control, expressing a GFP payload. At 24-hours post-transduction, luciferase activity (RLU) was measured to quantify AAV cellular transduction. Data was normalized to fold change in luciferase activity (RLU) compared to the pCMV6 control.

brain [6] = test: Second cross-species screen, passage 2 in BALB/c mice after first passage in NHPs; assay type: in vivo
Procedure: as §2

[7] = system: HEK 293T cells transfected with pCMV6 negative control; test: Binding and internalization assay in HEK 293T cells transfected with pCMV6 negative control (viral genomes); assay type: cell-based; settings: pCMV6 transfected cells (negative control, reference)
Procedure: Binding and internalization of AAV capsid variants comprising the TTM-001 capsid variant, the TTM-002 capsid variant, or the AAV9 control capsid was also investigated in cells engineered to express ALPL. HEK 293T cells were transfected via calcium phosphate transfection with a plasmid expressing ALPL, an AAVR positive control, or a pCMV6 negative control. At 24 hours post-transfection, the HEK 293T cells expressing the ALPL receptor were incubated with an AAV particle comprising the TTM-001 capsid variant, the TTM-002 capsid variant, or an AAV9 control capsid protein, expressing a GFP payload. At 2 or 3-hours post-incubation, cells were washed to remove unbound AAV particles and DNA was extracted to quantify viral genomes.

Molecule	fold enrichment in the DRG of NHPs relative to AAV9 [1]	fold enrichment in the brain of NHPs relative to AAV9 [1]	fold enrichment in the brain of NHPs relative to AAV9 ([1]; listed as GSGSPHSKAQNQQT)	fold enrichment in the spinal cord of NHPs relative to AAV9 [1]	Fold enrichment over AAV9 in the brain of NHPs [1]	Fold enrichment over AAV9 in the spinal cord of NHPs [1]	Fold enrichment over AAV9 in the brain of Mice (C57Bl/6) (brain [2])	Fold enrichment over AAV9 in C57Bl/6 P2 (brain [3])	expression relative to AAV9 in the heart of African green monkeys [4]	fold increase in expression relative to AAV9 in the brain of African green monkeys [4]	increase in transduction in cells expressing ALPL with deleted ER localization signal [5]	Fold enrichment over AAV9 in BALB/c P2 (brain [6])	Fold change in viral gene expression (2^-ΔΔCT) relative to pCMV6 transfected cells [7]
TTM-001: AAV9 capsid variant comprising SPHSKA (SEQ ID NO: 941) in loop IV (protein) chain 1: MAADGYLPDWLEDNLSEGIREWWALKPGAPQPKANQQHQDNARGLVLPGYKYLGPGNGLDKGEPVNAADAAALEHDKAYDQQLKAGDNPYLKYNHADAEFQERLKEDTSFGGNLGRAVFQAKKRLLEPLGLVEEAAKTAPGKKRPVEQSPQEPDSSAGIGKSGAQPAKKRLNFGQTGDTESVPDPQPIGEPPAAPSGVGSLTMASGGGAPVADNNEGADGVGSSSGNWHCDSQWLGDRVITTSTRTWALPTYNNHLYKQISNSTSGGSSNDNAYFGYSTPWGYFDFNRFHCHFSPRDWQRLINNNWGFRPKRLNFKLFNIQVKEVTDNNGVKTIANNLTSTVQVFTDSDYQLPYVLGSAHEGCLPPFPADVFMIPQYGYLTLNDGSQAVGRSSFYCLEYFPSQMLRTGNNFQFSYEFENVPFHSSYAHSQSLDRLMNPLIDQYLYYLSKTINGSGSPHSKAQNQQTLKFSVAGPSNMAVQGRNYIPGPSYRQQRVSTTVTQNNNSEFAWPGASSWALNGRNSLMNPGPAMASHKEGEDRFFPLSGSLIFGKQGTGRDNVDADKVMITNEEEIKTTNPVATESYGQVATNHQSAQAQAQTGWVQNQGILPGMVWQDRDVYLQGPIWAKIPHTDGNFHPSPLMGGFGMKHPPPQILIKNTPVPADPPTAFNKDKLNSFITQYSTGQVSVEIEWELQKENSKRWNPEIQYTSNYYKSNNVEFAVNTEGVYSEPRPIGTRYLTRNL chain 2: GSGSPHSKAQNQQT	0.4 fold	73.6 fold	76.6 fold	29.4 fold	73.615 fold	29.402 fold	25.293 fold	14.48 fold	a significant increase in expression relative to AAV9	43.5 fold	did not occur	44.58 fold	1 fold
TTM-002: AAV9 capsid variant comprising HDSPHK (SEQ ID NO: 2) in loop IV (protein) chain 1: MAADGYLPDWLEDNLSEGIREWWALKPGAPQPKANQQHQDNARGLVLPGYKYLGPGNGLDKGEPVNAADAAALEHDKAYDQQLKAGDNPYLKYNHADAEFQERLKEDTSFGGNLGRAVFQAKKRLLEPLGLVEEAAKTAPGKKRPVEQSPQEPDSSAGIGKSGAQPAKKRLNFGQTGDTESVPDPQPIGEPPAAPSGVGSLTMASGGGAPVADNNEGADGVGSSSGNWHCDSQWLGDRVITTSTRTWALPTYNNHLYKQISNSTSGGSSNDNAYFGYSTPWGYFDFNRFHCHFSPRDWQRLINNNWGFRPKRLNFKLFNIQVKEVTDNNGVKTIANNLTSTVQVFTDSDYQLPYVLGSAHEGCLPPFPADVFMIPQYGYLTLNDGSQAVGRSSFYCLEYFPSQMLRTGNNFQFSYEFENVPFHSSYAHSQSLDRLMNPLIDQYLYYLSKTINGHDSPHKSGQNQQTLKFSVAGPSNMAVQGRNYIPGPSYRQQRVSTTVTQNNNSEFAWPGASSWALNGRNSLMNPGPAMASHKEGEDRFFPLSGSLIFGKQGTGRDNVDADKVMITNEEEIKTTNPVATESYGQVATNHQSAQAQAQTGWVQNQGILPGMVWQDRDVYLQGPIWAKIPHTDGNFHPSPLMGGFGMKHPPPQILIKNTPVPADPPTAFNKDKLNSFITQYSTGQVSVEIEWELQKENSKRWNPEIQYTSNYYKSNNVEFAVNTEGVYSEPRPIGTRYLTRNL chain 2: GHDSPHKSGQNQQT	0.0 fold	62.6 fold	–	15.6 fold	62.612 fold	15.641 fold	63.993 fold	27.15 fold	a significant increase in expression relative to AAV9	13.8 fold	did not occur	59.14 fold	1 fold
